The values below come from publication PMC12956874.

For assay [1], the target named is PEX19-His, full-length (T. brucei). Briefly: AlphaScreen or HTRF; AlphaScreen displacement assay: equimolar PEX19-His and GST-PEX3Δ1-44 (30 nM), increasing amounts of untagged PEX38. (Bead proximity is the source of the signal in Alpha formats.)
For assay [2], the target named is TbPEX38 (65-134) (T. brucei). Briefly: ITC; 40 µM TbPEX38 titrated with 440 µM TbPEX19; triplicates; 25°C; 20 mM Tris pH 7.5, 50 mM NaCl; one-site binding model; MicroCal PEAQ-ITC. For orientation: Isothermal titration calorimetry measures the heat released or taken up as one component is titrated into another.
Assay [3] has as its target PEX38_(65–134) (T. brucei). Briefly: ITC; titration of PEX38 with PEX19; technical triplicates.
Assay [4] deals with PEX19-His 1 to 50 (T. brucei). Kind of assay: AlphaScreen or HTRF.
The target in assay [5] is PEX19-His, full-length (T. brucei). Briefly: AlphaScreen or HTRF.

PEX38_(65–134) (domain or fragment): the IC50 (commonly the concentration needed to halve the response being measured) in assay [1] was determined as 446 nM. This lies in the sub-micromolar range.
In assay [1], “untagged PEX38, full-length (natural protein)” showed an IC50 of 950 nM.
As for “TbPEX19 (1-50-SGGY) (domain or fragment)”, in assay [2], the Kd (commonly the constant that tells how readily two partners part at equilibrium) amounted to 2890 nM. This counts as single-digit micromolar.
In assay [3], “PEX19_(1–50) with a C-terminal SGGY extension (domain or fragment)” gave a Kd of 3000 nM.
Take “GST-PEX38, full-length (natural protein)”: in assay [4], the other is 10 fold.
In assay [5], GST-PEX3Δ1-44 (domain or fragment) had an other of 30 fold.
